The text below walks through data of publication PMC3764424, “High-resolution Structural and Thermodynamic Analysis of Extreme Stabilization of Human Procarboxypeptidase by Computational Protein Design” (Journal of Molecular Biology, 2007).

In general, Kd refers to the concentration at which binding is half-saturated.

The series concerns the molecule itself. As to the kind of experiment: AUC; sedimentation equilibrium, 20 °C, 25 mM Tris-HCl pH 8.0, 50 mM NaCl with and without 20 mM EDTA; 13, 33 and 50 μM protein; 25,000, 35,000 and 45,000 rpm; monomer-dimer model, dimer to monomers.

B1: AYEdes (N-terminal His6 tag followed only by the 70 designed residues of AYEdesign) (other)
chain: KTIFVIVPTNEEQVAFLEALAKQDELNFDWQNPPTEPGQPVVILIPSDMVEWFLEMLKAKGIPFTVYVEE
For the protein B1, the Kd was approximately 150 µM.
